Drawing on paper PMC12313019 (2025), this text covers Kd for 1 molecule.

This assay deals with integrin-αvβ1 (UniProt P06756 31-1048; P05556 21-798). Kind of assay: SPR. Background: In SPR one partner is held on a chip, and binding of the other changes the refractive index at the surface.
Sequence of integrin-αvβ1 (P06756 31-992, chain 1 of 2): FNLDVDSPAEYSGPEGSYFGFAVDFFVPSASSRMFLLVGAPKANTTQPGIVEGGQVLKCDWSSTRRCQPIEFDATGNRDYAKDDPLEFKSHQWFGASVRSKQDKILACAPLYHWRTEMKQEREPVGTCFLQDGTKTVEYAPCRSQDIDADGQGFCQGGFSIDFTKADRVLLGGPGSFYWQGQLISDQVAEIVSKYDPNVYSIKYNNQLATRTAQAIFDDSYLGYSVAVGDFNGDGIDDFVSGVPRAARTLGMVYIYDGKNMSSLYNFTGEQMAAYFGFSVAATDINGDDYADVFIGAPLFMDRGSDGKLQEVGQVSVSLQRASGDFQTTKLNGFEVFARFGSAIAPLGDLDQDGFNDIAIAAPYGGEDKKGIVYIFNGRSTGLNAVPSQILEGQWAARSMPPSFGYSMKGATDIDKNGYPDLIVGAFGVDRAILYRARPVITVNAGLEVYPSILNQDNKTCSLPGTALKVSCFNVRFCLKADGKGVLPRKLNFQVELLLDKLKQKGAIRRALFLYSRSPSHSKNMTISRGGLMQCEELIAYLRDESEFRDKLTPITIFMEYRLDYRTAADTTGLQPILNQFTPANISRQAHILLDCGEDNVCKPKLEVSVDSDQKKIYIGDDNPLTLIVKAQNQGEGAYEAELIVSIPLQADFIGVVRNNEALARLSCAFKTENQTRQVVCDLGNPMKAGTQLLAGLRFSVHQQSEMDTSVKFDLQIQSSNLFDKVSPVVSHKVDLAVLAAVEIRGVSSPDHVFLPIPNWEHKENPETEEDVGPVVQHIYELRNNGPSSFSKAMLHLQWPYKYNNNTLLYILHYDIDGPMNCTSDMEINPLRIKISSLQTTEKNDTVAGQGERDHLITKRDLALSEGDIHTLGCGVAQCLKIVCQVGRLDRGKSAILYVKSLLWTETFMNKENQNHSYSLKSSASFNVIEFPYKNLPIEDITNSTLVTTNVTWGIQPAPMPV
Sequence of integrin-αvβ1 (P05556 21-728, chain 2 of 2): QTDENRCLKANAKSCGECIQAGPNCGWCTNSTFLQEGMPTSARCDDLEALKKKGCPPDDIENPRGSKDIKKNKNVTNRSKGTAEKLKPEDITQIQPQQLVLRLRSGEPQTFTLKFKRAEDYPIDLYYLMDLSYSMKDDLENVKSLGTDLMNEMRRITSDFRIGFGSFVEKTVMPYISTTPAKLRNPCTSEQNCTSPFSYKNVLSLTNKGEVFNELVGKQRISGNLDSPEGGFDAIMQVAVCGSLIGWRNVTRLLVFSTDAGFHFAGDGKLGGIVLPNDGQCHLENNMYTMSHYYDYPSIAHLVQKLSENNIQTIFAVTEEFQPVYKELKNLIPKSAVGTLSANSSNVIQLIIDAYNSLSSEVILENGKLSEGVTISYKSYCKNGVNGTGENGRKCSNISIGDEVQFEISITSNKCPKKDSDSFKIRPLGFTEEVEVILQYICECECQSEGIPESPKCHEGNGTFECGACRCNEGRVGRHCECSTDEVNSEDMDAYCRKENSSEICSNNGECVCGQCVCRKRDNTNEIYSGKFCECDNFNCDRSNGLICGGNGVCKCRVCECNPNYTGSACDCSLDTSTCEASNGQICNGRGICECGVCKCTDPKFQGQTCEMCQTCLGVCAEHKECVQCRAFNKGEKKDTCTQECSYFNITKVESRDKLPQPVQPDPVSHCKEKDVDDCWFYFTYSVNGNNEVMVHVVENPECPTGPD

B1: SDC4_(87-131) (peptide)
peptide: NHIPERAGSGSQVPTEPKKLEENEVIPKRISPVEESEDVSNKVSM
modifications: The limits and source of the SPR ligand are not printed. The soluble ectodomain heterodimer is assumed by convention from the UniProt extracellular topology. Alpha-V may be cleaved into heavy and light chains joined by a disulfide. Amine-coupled to a CM5 chip.
Turning to B1, the Kd came to 43.6 nM.

The Kd is the constant that tells how readily two partners part at equilibrium. High values mean a looser complex, low ones a tighter complex.
